Measurements as given in PMC3280215.

B1: PGT 128 (format not stated for the experiment) (antibody, V domains shown)
VH: QPQLQESGPTLVEASETLSLTCAVSGDSTAACNSFWGWVRQPPGKGLEWVGSLSHCASYWNRGWTYHNPSLKSRLTLALDTPKNLVFLKLNSVTAADTATYYCARFGGEVLRYTDWPKPAWVDLWGRGTLVTVSS
VL: QSALTQPPSASGSPGQSITISCTGTSNNFVSWYQQHAGKAPKLVIYDVNKRPSGVPDRFSGSKSGNTASLTVSGLQTDDEAVYYCGSLVGNWDVIFGGGTKLTVL
B2: Fab PGT 128 (Fab, V domains shown)
VH: B1 VH
VL: B1 VL

Tests used:
[1] = molecular target: engineered outer domain mini-V3 (glycosylated gp120 outer domain construct containing a truncated V3 loop) (HIV-1)
[2] = molecular target: soluble, partially deglycosylated 664G Env trimer (HIV-1); assay: negative-stain EM reconstruction

Binder | Kd [1] [µM] | fold less than the interaction with m8 [1] [fold] | stoichiometry N [2]
B1 | 0.046 | 8 | –
B2 | – | – | 3
